In paper PMC11030525:

Columns and labels:
FKBP4, mouse = FKBP4, mouse (UniProt P30416); assay: mCherry antibody affinity purification (IP) with SILAC LC-MS; settings: E14 ESCs; AA mutant in light media, EE mutant in heavy media; representative spectrum; mCherry EE:AA = 1.08 in the same panel
AHA1, mouse = AHA1, mouse (UniProt Q8BK64); assay: as above; settings: E14 ESCs; AA mutant in light media, EE mutant in heavy media; representative spectrum; mCherry EE:AA = 1.08 in the same panel
AHA1, mouse, sequence (Q8BK64 whole entry): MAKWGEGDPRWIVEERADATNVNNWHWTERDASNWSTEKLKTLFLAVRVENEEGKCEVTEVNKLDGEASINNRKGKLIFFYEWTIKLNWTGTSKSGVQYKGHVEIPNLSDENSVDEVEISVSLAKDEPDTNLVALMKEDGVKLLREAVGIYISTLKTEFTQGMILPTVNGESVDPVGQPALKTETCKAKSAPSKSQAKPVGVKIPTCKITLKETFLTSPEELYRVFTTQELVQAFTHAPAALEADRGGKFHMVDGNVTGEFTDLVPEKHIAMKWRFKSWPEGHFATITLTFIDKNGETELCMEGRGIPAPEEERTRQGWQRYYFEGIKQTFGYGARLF

mCherry-HSP90β-Wild type, P08238 S226E; S255E, sequence (P08238 whole entry S226E/S255E): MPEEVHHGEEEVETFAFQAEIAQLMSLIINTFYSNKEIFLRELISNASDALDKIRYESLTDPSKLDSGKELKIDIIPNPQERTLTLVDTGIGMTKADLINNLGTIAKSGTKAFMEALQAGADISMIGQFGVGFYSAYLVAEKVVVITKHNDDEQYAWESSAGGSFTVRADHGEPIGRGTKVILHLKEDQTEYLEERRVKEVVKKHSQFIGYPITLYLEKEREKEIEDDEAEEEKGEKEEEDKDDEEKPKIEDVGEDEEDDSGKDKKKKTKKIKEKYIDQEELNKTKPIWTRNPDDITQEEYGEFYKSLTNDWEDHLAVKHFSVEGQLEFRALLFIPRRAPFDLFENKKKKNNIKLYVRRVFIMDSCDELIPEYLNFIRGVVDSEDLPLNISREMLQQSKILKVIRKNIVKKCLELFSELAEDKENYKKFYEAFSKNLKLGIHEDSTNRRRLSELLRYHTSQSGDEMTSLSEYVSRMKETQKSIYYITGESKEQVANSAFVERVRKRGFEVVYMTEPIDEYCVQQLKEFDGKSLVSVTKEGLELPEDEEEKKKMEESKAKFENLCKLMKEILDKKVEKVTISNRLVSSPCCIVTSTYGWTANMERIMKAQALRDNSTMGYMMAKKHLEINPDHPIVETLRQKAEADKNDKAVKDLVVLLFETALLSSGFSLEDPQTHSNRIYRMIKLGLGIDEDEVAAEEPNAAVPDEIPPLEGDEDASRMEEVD
FKBP4, mouse, sequence (P30416 whole entry): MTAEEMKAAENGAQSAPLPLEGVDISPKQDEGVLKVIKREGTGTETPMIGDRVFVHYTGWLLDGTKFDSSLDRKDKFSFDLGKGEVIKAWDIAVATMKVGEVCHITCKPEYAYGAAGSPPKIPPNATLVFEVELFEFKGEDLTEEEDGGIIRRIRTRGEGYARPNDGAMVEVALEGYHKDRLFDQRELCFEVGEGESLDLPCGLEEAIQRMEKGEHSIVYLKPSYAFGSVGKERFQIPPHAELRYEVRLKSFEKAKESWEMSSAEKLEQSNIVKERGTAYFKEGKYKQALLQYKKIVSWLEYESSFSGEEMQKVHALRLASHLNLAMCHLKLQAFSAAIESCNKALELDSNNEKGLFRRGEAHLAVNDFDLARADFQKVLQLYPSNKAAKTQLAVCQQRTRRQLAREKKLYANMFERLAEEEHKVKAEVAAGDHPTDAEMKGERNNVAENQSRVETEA

Question: With “mCherry-HSP90β-Wild type, P08238 S226E; S255E” as the substance, how does the other: SILAC ratio EE:AA (FKBP4, mouse) read?
Answer: The other: SILAC ratio EE:AA was 1.74.

Question: And the other: SILAC ratio EE:AA (AHA1, mouse)?
Answer: The other: SILAC ratio EE:AA was 1.69.
